Results as given in patent US20160257744A1 (Genentech, published 2016).

T1: interleukin 4 (IL4) (UniProt P05112 25-153)
T1 sequence (looked up): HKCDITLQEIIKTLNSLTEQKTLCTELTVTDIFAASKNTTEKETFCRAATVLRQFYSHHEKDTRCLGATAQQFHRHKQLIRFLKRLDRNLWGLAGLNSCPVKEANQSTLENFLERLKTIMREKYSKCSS

T2: interleukin 5 (IL5) (human, UniProt P05113 20-134)
T2 construct: also called human IL5 (R&D Systems)
T2 sequence (looked up): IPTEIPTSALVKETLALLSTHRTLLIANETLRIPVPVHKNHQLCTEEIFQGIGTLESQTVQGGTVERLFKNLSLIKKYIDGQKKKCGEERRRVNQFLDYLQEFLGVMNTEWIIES


Experiments:
[1] = target: T1, interleukin 4 (IL4); assay: ELISA: human IgG1 at 250 nM on protein-coated wells, anti-Fc-HRP
[2] = target: interleukin 13 (IL13) (UniProt P35225 35-146, limits assumed); assay: as above
[3] = target: T3, HER2 ECD; assay: as above
T3 construct: one of the irrelevant proteins; also called irrelevant protein coated on ELISA wells

[4] = target: T4, BSA (bovine, UniProt P02769); assay: as above
T4 construct: negative control protein; also called irrelevant protein coated on ELISA wells

[5] = target: T2, interleukin 5 (IL5); assay: as above
[6] = target: T3, HER2 ECD; assay: ELISA: IgG at 100 nM on immobilized protein, anti-IgG-HRP [panel A]
[7] = target: T4, BSA; assay: as above

T4 sequence (P02769 25-607 limits assumed): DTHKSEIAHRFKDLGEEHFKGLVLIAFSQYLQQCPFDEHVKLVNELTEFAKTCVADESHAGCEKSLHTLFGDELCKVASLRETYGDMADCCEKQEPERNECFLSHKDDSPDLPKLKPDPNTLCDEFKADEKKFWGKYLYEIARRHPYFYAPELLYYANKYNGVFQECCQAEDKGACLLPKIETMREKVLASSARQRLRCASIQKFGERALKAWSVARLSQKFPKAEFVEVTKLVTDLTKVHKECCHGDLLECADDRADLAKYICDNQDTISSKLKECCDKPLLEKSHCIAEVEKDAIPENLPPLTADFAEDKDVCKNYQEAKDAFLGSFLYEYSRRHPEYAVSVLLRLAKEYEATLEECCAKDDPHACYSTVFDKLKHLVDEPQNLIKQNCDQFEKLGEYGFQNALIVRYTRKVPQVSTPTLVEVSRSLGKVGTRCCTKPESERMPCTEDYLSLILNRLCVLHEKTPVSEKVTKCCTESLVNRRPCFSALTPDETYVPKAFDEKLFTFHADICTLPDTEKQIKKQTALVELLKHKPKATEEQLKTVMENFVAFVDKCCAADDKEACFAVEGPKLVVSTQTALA
interleukin 13 (IL13), sequence (P35225 35-146 limits assumed): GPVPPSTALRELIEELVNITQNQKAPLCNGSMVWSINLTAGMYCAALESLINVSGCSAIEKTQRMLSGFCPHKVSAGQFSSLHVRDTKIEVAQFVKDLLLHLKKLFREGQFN

Binder | binding result [1] | binding result [2] | binding result [3] | binding result [4] | binding result [5] | binding result [6] | binding result [7]
5A as human IgG1 (antibody, V domains shown) VH: EVQLVQSGAEVKKPGASVKVSCKASGYTFTDYDIHWVRQAPGQGLEWIVWINTETGEPTYADDFKGRVTITRDTSTSTAYLELSSLRSEDTAVYYCAREILFYGMDYWGQGTLVTVSS VL: DIQMTQSPSSLSASVGDRVTITCKASQSVINDAAWYQQKPGKAPKLLIYYTSHRYTGVPSRFSGSGSGTDFTLTISSLQEDFATYYCQQDYTSPWTFGQGTKVEIKR | no binding (tested: 250 nM) | no binding (tested: 250 nM) | no binding (tested: 250 nM) | no binding (tested: 250 nM) | – | – | –
humanized antibody 19C11 (hu19C11) as IgG (antibody, V domains shown, IgG; also called the antibody as IgG) VH: EVQLVQSGAEVKKPGASVKVSCKASGYTFTDYSMHWVRQAPGQGLEWIVWINTETGEPTYADDFKGRVTITRDTSTSTAYLELSSLRSEDTAVYYCARGGIFYGMDYWGQGTLVTVSS VL: DIQMTQSPSSLSASVGDRVTITCKASQSVINDAAWYQQKPGKAPKLLIYYTSHRYTGVPSRFSGSGSGTDFTLTISSLQEDFATYYCQQDYTSPWTFGQGTKVEIKR | – | no binding (tested: 250 nM) | no binding (tested: 250 nM) | no binding (tested: 250 nM) | no binding (tested: 250 nM) | – | –
F2 as human IgG1 (antibody, V domains shown) VH: EVQLVQSGAEVKKPGASVKVSCKASGYTFTDYSMHWVRQAPGQGLEWIGIIFYTGHTYYADDFKGRVTITRDTSTSTAYLELSSLRSEDTAVYYCARGGIFYGMDYWGQGTLVTVSS VL: DIQMTQSPSSLSASVGDRVTITCKASQSVINDAAWYQQKPGKAPKLLIYYTSHRYTGVPSRFSGSGSGTDFTLTISSLQEDFATYYCQQDYTSPWTFGQGTKVEIKR | – | – | no binding (tested: 250 nM) | no binding (tested: 250 nM) | no binding (tested: 250 nM) | – | –
1C60, affinity-matured variant of E7, as IgG (antibody, V domains shown) VH: EVQLVQSGAEVKKPGASVKVSCKASGYTFTDYFIHWVRQAPGQGLEWIAGIVYDATGFTVYADDFKGRVTITRDTSTSTAYLELSSLRSEDTAVYYCARGGIFYGMDYWGQGTLVTVSS VL: DIQMTQSPSSLSASVGDRVTITCKASQSVINDAAWYQQKPGKAPKLLIYYTSHRYTGVPSRFSGSGSGTDFTLTISSLQEDFATYYCQQDYKHPWTFGQGTKVEIKR | – | – | – | – | – | no binding (tested: 100 nM) | no binding (tested: 100 nM)
1C36, affinity-matured variant of E7, as IgG (antibody, V domains shown) VH: EVQLVQSGAEVKKPGASVKVSCKASGYTFTDYFIHWVRQAPGQGLEWIGGIVYDATGFTTYAEEFKGRVTITRDTSTSTAYLELSSLRSEDTAVYYCARGGIFYGMDYWGQGTLVTVSS VL: DIQMTQSPSSLSASVGDRVTITCKASQSVINDAAWYQQKPGKAPKLLIYYTSHRYTGVPSRFSGSGSGTDFTLTISSLQEDFATYYCQQDYTHPWTFGQGTKVEIKR | – | – | – | – | – | no binding (tested: 100 nM) | no binding (tested: 100 nM)
